T1: rMtbEspR (Mycobacterium tuberculosis H37Rv, UniProt P9WJB7 1-132)
T1 sequence: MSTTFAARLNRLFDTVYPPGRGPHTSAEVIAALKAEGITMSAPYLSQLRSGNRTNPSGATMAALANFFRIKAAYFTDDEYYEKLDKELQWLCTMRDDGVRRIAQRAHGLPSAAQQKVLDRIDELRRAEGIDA

B1: IL-4 promoter full EMSA probe (FL) (dsDNA)
DNA 1: CTATGCAAAGCAAAAAGCCAGCAGCAGCCCCAAGCTGATAAGATTAATCTAAAGAGCAAATTATGGTG
DNA 2: CACCATAATTTGCTCTTTAGATTAATCTTATCAGCTTGGGGCTGCTGCTGGCTTTTTGCTTTGCATAG
B2: IFN-gamma promoter EMSA probe (dsDNA)
DNA 1: GAATTTCGTTTTTCACTTGTTCCCAACCACAAGCAAATGATCAATGT
DNA 2: ACATTGATCATTTGCTTGTGGTTGGGAACAAGTGAAAAACGAAATTC
B3: HIV LTR EMSA probe (dsDNA)
DNA 1: CAGTTGAACCAGAGCAAGTAGAAGAGGCC
DNA 2: GGCCTCTTCTACTTGCTCTGGTTCAACTG

What follows are binders tested against T1, rMtbEspR (assay: EMSA; poly(dI-dC) 50 ng/ml). Settings: protein: recombinant; tags: N- and C-terminal 6xHis; chain copies: 2; label: 32P 5' end (T4 PNK); blunt.
B1: binds. B2: no binding. B3: no binding.

— PMC10621737
